The values below come from patent US20250369982A1, “METHODS OF DETECTING DDR1 PHOSPHORYLATION” (IncendiaTherapeutics, Inc., priority 2022, published 2025).

Read-outs that look alike come from different tables or passages of the source.

Data set [1] has as its target T1, DDR1 (Homo sapiens, UniProt Q08345).
T1 construct: Cultured T47D breast cancer cells were serum starved for 16 hours; endogenous in cells; host or cells: T47D breast cancer cells
As to the kind of experiment: Inhibition of collagen-induced DDR1 phosphorylation in T47D cells (Jess immunoassay). The settings on record: serum-starved T47D cells, 2 h pretreatment, 50 μg/ml human collagen I for 90 minutes. Format: cell-based. On the procedure: Cells treated with 200 nM of 2.45-IN [2-(4-Bromo-2-oxo-1′-(1H-pyrazolo[4,3-b]pyridine-5-carbonyl)spiro[indoline-3,4′-piperidin]-1-yl)-N-(2,2,2-trifluoroethyl) acetamide] were used as positive control for inhibition of DDR1 phosphorylation. Cell lysate was then analyzed via Jess immunoassay (ProteinSimple).
Serum-starved T47D cells were pretreated for two hours with increasing concentrations of monoclonal antibody or IgG control, followed by stimulation with 50 μg/ml of human collagen I for 90 minutes.

Data set [2] in a line: Pharmacokinetic profiles of anti-DDR1 mAbs in mice (ELISA of circulating antibody). The settings on record: female C57B16JrJ mice, intraperitoneal, 10 mg/kg; for Cmax: circulating free and partially bound antibody. Format: in vivo, mouse. As to the method:
To evaluate the pharmacokinetic profiles of anti-DDR1 mAbs, mAbs were administered intraperitoneally to female C57B16JrJ mice at a dose of 10 mg/kg, serial blood sampling was performed over time (FIG. 4A), and ELISA was used to measure circulating free and partially bound antibody. […] Further, as shown in FIG. 4E and Table S1 below, the maximal circulating (free and partially bound) concentrations of each mAb were higher than the concentration required to bind to target (as shown by the surface plasmon resonance results of mAb binding to mouse DDR1 extracellular domain; see Table S2 below). Moreover, the maximal circulating (free and partially bound) concentrations of mAb #9H1 WT IgG1 were higher than the in vitro concentration required to inhibit Collagen I-induced phosphorylation of DDR1 in T47D cells (see FIG. 1).

T1 sequence (Q08345 19-913): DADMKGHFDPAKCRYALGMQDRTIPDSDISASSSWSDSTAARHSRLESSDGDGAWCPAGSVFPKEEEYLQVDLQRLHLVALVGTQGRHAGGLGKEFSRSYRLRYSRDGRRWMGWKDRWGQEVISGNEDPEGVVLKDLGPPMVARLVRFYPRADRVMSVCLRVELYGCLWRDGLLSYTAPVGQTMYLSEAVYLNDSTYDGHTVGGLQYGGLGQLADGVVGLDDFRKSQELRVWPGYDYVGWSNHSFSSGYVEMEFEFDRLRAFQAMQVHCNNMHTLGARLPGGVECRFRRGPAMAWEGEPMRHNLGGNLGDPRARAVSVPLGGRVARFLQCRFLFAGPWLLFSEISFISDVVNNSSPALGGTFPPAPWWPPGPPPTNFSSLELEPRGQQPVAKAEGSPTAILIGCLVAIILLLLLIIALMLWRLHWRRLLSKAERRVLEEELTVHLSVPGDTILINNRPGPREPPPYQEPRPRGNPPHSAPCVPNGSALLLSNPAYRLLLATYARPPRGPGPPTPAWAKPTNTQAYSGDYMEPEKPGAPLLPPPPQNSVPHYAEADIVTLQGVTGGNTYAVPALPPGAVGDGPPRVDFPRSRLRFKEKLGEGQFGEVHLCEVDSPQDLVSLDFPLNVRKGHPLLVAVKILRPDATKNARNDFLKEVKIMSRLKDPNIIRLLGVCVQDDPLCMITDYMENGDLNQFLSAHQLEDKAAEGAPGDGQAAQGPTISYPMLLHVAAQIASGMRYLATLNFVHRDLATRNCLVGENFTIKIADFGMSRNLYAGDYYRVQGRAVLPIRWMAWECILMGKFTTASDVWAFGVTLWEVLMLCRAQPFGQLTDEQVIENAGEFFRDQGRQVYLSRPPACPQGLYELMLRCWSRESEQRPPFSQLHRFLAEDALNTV

B1: rabbit mAb #33: rabbit anti-DDR1 monoclonal antibody, light chain SEQ ID NO: 164, heavy chain SEQ ID NO: 165 (antibody)
heavy: QSVEESGGRLVTPGGSLTLTCTVSGFSLSSYDMSWVRQAPGKGLEWIGISWNSGFVDYASWAKGRFSISKTSTTVDLKITSPTTEDTATYFCARLGADDIYYFNLWGPGTLVTISSGQPKAPSVFPLAPCCGDTPSSTVTLGCLVKGYLPEPVTVTWNSGTLTNGVRTFPSVRQSSGLYSLSSVVSVTSSSQPVTCNVAHPATNTKVDKTVAPSTCSKPTCPPPELLGGPSVFIFPPKPKDTLMISRTPEVTCVVVDVSQDDPEVQFTWYINNEQVRTARPPLREQQFNSTIRVVSTLPIAHQDWLRGKEFKCKVHNKALPAPIEKTISKARGQPLEPKVYTMGPPREELSSRSVSLTCMINGFYPSDISVEWEKNGKAEDNYKTTPAVLDSDGSYFLYSKLSVPTSEWQRGDVFTCSVMHEALHNHYTQKSISRSPGK
light: ELVMTQTPASVEAAVGGTVTIKCQASETISSRLAWYQQKPGQPPKLLIYQASKLPSGVPSRFKGTGSGTEYTLTISDLECADAATYYCQGCYYGGGSFYDSAFGGGTEVVVKGDPVAPTVLIFPPAADQVATGTVTIVCVANKYFPDVTVTWEVDGTTQTTGIENSKTPQNSADCTYNLSSTLTLTSTQYNSHKEYTCKVTQGTTSVVQSFNRGDC
With B1, the “inhibition of collagen I-induced phosphorylation of DDR1 (in words)” value in data set [1] is reported as “able to inhibit”.

B2: #33 inert IgG1: rabbit mAb #33 heavy and light chain variable domains fused to human IgG1 constant domains; SEQ ID NOs: 23 and 24 (protein)
chain 1: ELVMTQTPASVEAAVGGTVTIKCQASETISSRLAWYQQKPGQPPKLLIYQASKLPSGVPSRFKGTGSGTEYTLTISDLECADAATYYCQGCYYGGGSFYDSAFGGGTEVVVKRTVAAPSVFIFPPSDEQLKSGTASVVCLLNNFYPREAKVQWKVDNALQSGNSQESVTEQDSKDSTYSLSSTLTLSKADYEKHKVYACEVTHQGLSSPVTKSFNRGEC
chain 2: QSVEESGGRLVTPGGSLTLTCTVSGFSLSSYDMSWVRQAPGKGLEWIGISWNSGFVDYASWAKGRFSISKTSTTVDLKITSPTTEDTATYFCARLGADDIYYFNLWGPGTLVTISSASTKGPSVFPLAPSSKSTSGGTAALGCLVKDYFPEPVTVSWNSGALTSGVHTFPAVLQSSGLYSLSSVVTVPSSSLGTQTYICNVNHKPSNTKVDKRVEPKSCDKTHTCPPCPAPEAEGAPSVFLFPPKPKDTLMISRTPEVTCVVVDVSHEDPEVKFNWYVDGVEVHNAKTKPREEQYNSTYRVVSVLTVLHQDWLNGKEYKCKVSNKALPSSIEKTISKAKGQPREPQVYTLPPSREEMTKNQVSLTCLVKGFYPSDIAVEWESNGQPENNYKTTPPVLDSDGSFFLYSKLTVDKSRWQQGNVFSCSVMHEALHNHYTQKSLSLSPGK
Take B2: in data set [2], the “exposure over 168 hours (in words)” value is on record as “comparable to expected exposures for IgG1”, the tmax is 48 h and the Cmax worked out at 131.82 µg/mL. Besides, the Cmax in data set [2] (read-out: Cmax) amounted to 650 nM.
